Reference: the supplement of paper PMC7877785
± gives the uncertainty stated by the source.

Assay: self-splicing fitness, log relative to wild type (ln ratio); higher = more splicing; Tetrahymena group I intron in knt gene, E. coli kanamycin selection, DiMSum; sequences stand for … in CUCUCU…GGAGGGAAAAGUUAUCAGGCAUGCACCUGGUAGCUAGUCUUUAAACCAAUAGAUUGCAUCGGUUUAAAAGGCAAGACCGUCAAAUUGCGGGAAAGGGGUCAACAGCCGUUCAGUACCAAGUCUCAGGGGAAACUUUGAGAUGGCCUUGCAAAGGGUAUGGUAAUAAGCUGACGGACAUGGUCCUAACCACGCAGCCAAGUCCUAAGUCAACAGAUCUUCUGUUGAUAUGGAUGCAGUUCACAGACUAAAUGUCGGUCGGGGAAGAUGUAUUCUUCUCAUAAGAUAUAGUCGGACCUCUCCUUAAUGGGAGCUAGCGGAUGAAGUGAUGCAACACUGGAGCCGCUGGGAACUAAUUUGUAUGCGAAAGUAUAUUGAUUAGUUUUGGAGUACUCGUGGUCG
In short: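 DiMSum derived fitness as the error-weighted combination of fold changes across replicates, kanamycin versus no kanamycin, normalised to wild type. E. coli BL21(DE3) held the library, which randomised all eight P1ex-region intron nucleotides within the knt kanamycin-resistance gene on pET-22b(+). Six replicate transformations grew overnight at 37°C or 30°C on LB agar with or without 25 μg/mL kanamycin, also containing 100 μg/mL carbenicillin, 50 μM IPTG and 0.2% rhamnose, and pooled colonies were amplicon-sequenced on an Illumina HiSeq 2500.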

Row | Sequence | self-splicing fitness (ln) (30 °C) | self-splicing fitness (ln) (37 °C)
1 | UUUCAGCAAUAUUACGCAUG | -0.765 ± 0.093 | -0.0959 ± 0.11
2 | UUUCAGCAAUAUUACGCCUG | -1.95 ± 0.12 | -1.02 ± 0.11
3 | UUUCAGCAAUAUUACGCGCC | -1.72 ± 0.24 | -0.992 ± 0.37
4 | UUUCAGCAAUAUUACGCUCA | -0.608 ± 0.17 | 0.404 ± 0.18
5 | UUUCAGCAAUAUUACGCUCC | -1.69 ± 0.22 | -1.02 ± 0.29
6 | UUUCAGCAAUAUUACGCUGG | -3.94 ± 0.3 | -1.77 ± 0.33
7 | UUUCAGCAAUAUUACGCUGU | -3.52 ± 0.13 | -2.19 ± 0.21
8 | UUUCAGCAAUAUUACGGCAA | -0.476 ± 0.089 | -0.0559 ± 0.11
9 | UUUCAGCAAUAUUACGGCCG | -0.936 ± 0.17 | -0.968 ± 0.26
10 | UUUCAGCAAUAUUACGGCUA | 0.189 ± 0.14 | 0.336 ± 0.12
11 | UUUCAGCAAUAUUACGGUGU | -2.91 ± 0.13 | -2.15 ± 0.18
12 | UUUCAGCAAUAUUACGUAAC | -3.2 ± 0.23 | -2.4 ± 0.27
13 | UUUCAGCAAUAUUACGUACU | -1.49 ± 0.15 | -0.647 ± 0.17
14 | UUUCAGCAAUAUUACGUGUU | -3.42 ± 0.13 | -2.87 ± 0.14
15 | UUUGAGCAAUAUUACGAACA | -2.9 ± 0.23 | -2.15 ± 0.21
16 | UUUGAGCAAUAUUACGAACC | -2.5 ± 0.35 | –
17 | UUUGAGCAAUAUUACGAAGU | – | -2.67 ± 0.3
18 | UUUGAGCAAUAUUACGAUAC | -3.55 ± 0.48 | –

Row | Sequence | self-splicing fitness (ln) (30 °C) | self-splicing fitness (ln) (37 °C)
19 | UUUGAGCAAUAUUACGAUGG | -2.08 ± 0.17 | -1.77 ± 0.2
20 | UUUGAGCAAUAUUACGAUUU | -3.28 ± 0.24 | -2.05 ± 0.27
21 | UUUGAGCAAUAUUACGCAGG | -2.99 ± 0.21 | -1.34 ± 0.18
22 | UUUGAGCAAUAUUACGCAUG | -0.647 ± 0.12 | -0.524 ± 0.19
23 | UUUGAGCAAUAUUACGCAUU | -2.65 ± 0.27 | -1.09 ± 0.2
24 | UUUGAGCAAUAUUACGCCUU | – | -2.2 ± 0.45
25 | UUUGAGCAAUAUUACGCUGU | -3.01 ± 0.27 | –
26 | UUUGAGCAAUAUUACGGAUC | -3.24 ± 0.37 | -2.24 ± 0.44
27 | UUUGAGCAAUAUUACGGCAU | -1.56 ± 0.33 | -1.62 ± 0.3
28 | UUUGAGCAAUAUUACGGGGA | – | -2.42 ± 0.41
29 | UUUGAGCAAUAUUACGUAGC | -1.83 ± 0.32 | –
30 | UUUGAGCAAUAUUACGUGCA | -3.05 ± 0.21 | -1.96 ± 0.18
31 | UUUGAGCAAUAUUACGUUUA | -3.32 ± 0.24 | -2.21 ± 0.23
32 | UUUUAGCAAUAUUACGAACG | -0.665 ± 0.11 | 0.449 ± 0.18
33 | UUUUAGCAAUAUUACGAACU | -1.75 ± 0.34 | -0.164 ± 0.23
34 | UUUUAGCAAUAUUACGAAGA | -1.85 ± 0.31 | -1.21 ± 0.22
35 | UUUUAGCAAUAUUACGACGG | -0.13 ± 0.14 | -0.173 ± 0.18
